From patent publication US20240124857A1, “COMPOSITION FOR GUT HEALTH” (DUPONT NUTRITION BIOSCIENCES APS, priority 2021, published 2024)

Experiment: Relative activity on ATP of CRC22110 single-site variants
Assay type: biochemical
Conditions: in comparison to CRC22110 wild type

B1: CRC22110v8: single-site variant F205A of CRC22110 (SEQ ID NO: 9) (protein, listed as Gallaecimonas xiamenensis)
chain: ADKPACRAVFDAGSSGTRLFLYVQQEGGWQPWPGAKLGALADPVRQHQGPKAMAALAADLANSLEALRQDGPTNSEGQPRWQGFDWQQACRLQSVSVLATAGMRLAEQQDPVASVALWQEVQQALAGLLGPAVAIDARTLTGFEEGFYAWLAARARLGRSDMGIVEMGGASSQVAFPCPACDRADDAVQQVRLEGQTLDFYSYSALGLGQDEAPKVLGVPHACRYGAGVKDPNWQLGQCQAQLPLTLGRALKDPYNFQGQGQGGYRQVPTEKAGVKDWLLTGAFQYNTPDQLDSCCLNQGQCYQPSTACFRVAYLPLYLDSLGVDPHSPDLDVSWTLGAVLCRNEQCLAPSKPPCRWRKAGCLAPSVGDGRPEGRPGQQPGGVQHRQH
  Relative activity (%) on ATP: 68%

B2: CRC22110v10: single-site variant L206I of CRC22110 (SEQ ID NO: 9) (protein, listed as Gallaecimonas xiamenensis)
chain: ADKPACRAVFDAGSSGTRLFLYVQQEGGWQPWPGAKLGALADPVRQHQGPKAMAALAADLANSLEALRQDGPTNSEGQPRWQGFDWQQACRLQSVSVLATAGMRLAEQQDPVASVALWQEVQQALAGLLGPAVAIDARTLTGFEEGFYAWLAARARLGRSDMGIVEMGGASSQVAFPCPACDRADDAVQQVRLEGQTLDFYSYSFIGLGQDEAPKVLGVPHACRYGAGVKDPNWQLGQCQAQLPLTLGRALKDPYNFQGQGQGGYRQVPTEKAGVKDWLLTGAFQYNTPDQLDSCCLNQGQCYQPSTACFRVAYLPLYLDSLGVDPHSPDLDVSWTLGAVLCRNEQCLAPSKPPCRWRKAGCLAPSVGDGRPEGRPGQQPGGVQHRQH
  Relative activity (%) on ATP: 16%

B3: CRC22110v5: single-site variant G209A of CRC22110 (SEQ ID NO: 9) (protein, listed as Gallaecimonas xiamenensis)
chain: ADKPACRAVFDAGSSGTRLFLYVQQEGGWQPWPGAKLGALADPVRQHQGPKAMAALAADLANSLEALRQDGPTNSEGQPRWQGFDWQQACRLQSVSVLATAGMRLAEQQDPVASVALWQEVQQALAGLLGPAVAIDARTLTGFEEGFYAWLAARARLGRSDMGIVEMGGASSQVAFPCPACDRADDAVQQVRLEGQTLDFYSYSFLGLAQDEAPKVLGVPHACRYGAGVKDPNWQLGQCQAQLPLTLGRALKDPYNFQGQGQGGYRQVPTEKAGVKDWLLTGAFQYNTPDQLDSCCLNQGQCYQPSTACFRVAYLPLYLDSLGVDPHSPDLDVSWTLGAVLCRNEQCLAPSKPPCRWRKAGCLAPSVGDGRPEGRPGQQPGGVQHRQH
  Relative activity (%) on ATP: 16%

B4: CRC22110v7: single-site variant S204T of CRC22110 (SEQ ID NO: 9) (protein, listed as Gallaecimonas xiamenensis)
chain: ADKPACRAVFDAGSSGTRLFLYVQQEGGWQPWPGAKLGALADPVRQHQGPKAMAALAADLANSLEALRQDGPTNSEGQPRWQGFDWQQACRLQSVSVLATAGMRLAEQQDPVASVALWQEVQQALAGLLGPAVAIDARTLTGFEEGFYAWLAARARLGRSDMGIVEMGGASSQVAFPCPACDRADDAVQQVRLEGQTLDFYSYTFLGLGQDEAPKVLGVPHACRYGAGVKDPNWQLGQCQAQLPLTLGRALKDPYNFQGQGQGGYRQVPTEKAGVKDWLLTGAFQYNTPDQLDSCCLNQGQCYQPSTACFRVAYLPLYLDSLGVDPHSPDLDVSWTLGAVLCRNEQCLAPSKPPCRWRKAGCLAPSVGDGRPEGRPGQQPGGVQHRQH
  Relative activity (%) on ATP: 53%

B5: CRC22110v1: single-site variant S204A of CRC22110 (SEQ ID NO: 9) (protein, listed as Gallaecimonas xiamenensis)
chain: ADKPACRAVFDAGSSGTRLFLYVQQEGGWQPWPGAKLGALADPVRQHQGPKAMAALAADLANSLEALRQDGPTNSEGQPRWQGFDWQQACRLQSVSVLATAGMRLAEQQDPVASVALWQEVQQALAGLLGPAVAIDARTLTGFEEGFYAWLAARARLGRSDMGIVEMGGASSQVAFPCPACDRADDAVQQVRLEGQTLDFYSYAFLGLGQDEAPKVLGVPHACRYGAGVKDPNWQLGQCQAQLPLTLGRALKDPYNFQGQGQGGYRQVPTEKAGVKDWLLTGAFQYNTPDQLDSCCLNQGQCYQPSTACFRVAYLPLYLDSLGVDPHSPDLDVSWTLGAVLCRNEQCLAPSKPPCRWRKAGCLAPSVGDGRPEGRPGQQPGGVQHRQH
  Relative activity (%) on ATP: 37%

B6: CRC22110v4: single-site variant L208A of CRC22110 (SEQ ID NO: 9) (protein, listed as Gallaecimonas xiamenensis)
chain: ADKPACRAVFDAGSSGTRLFLYVQQEGGWQPWPGAKLGALADPVRQHQGPKAMAALAADLANSLEALRQDGPTNSEGQPRWQGFDWQQACRLQSVSVLATAGMRLAEQQDPVASVALWQEVQQALAGLLGPAVAIDARTLTGFEEGFYAWLAARARLGRSDMGIVEMGGASSQVAFPCPACDRADDAVQQVRLEGQTLDFYSYSFLGAGQDEAPKVLGVPHACRYGAGVKDPNWQLGQCQAQLPLTLGRALKDPYNFQGQGQGGYRQVPTEKAGVKDWLLTGAFQYNTPDQLDSCCLNQGQCYQPSTACFRVAYLPLYLDSLGVDPHSPDLDVSWTLGAVLCRNEQCLAPSKPPCRWRKAGCLAPSVGDGRPEGRPGQQPGGVQHRQH
  Relative activity (%) on ATP: 74%

B7: CRC22110v3: single-site variant G207A of CRC22110 (SEQ ID NO: 9) (protein, listed as Gallaecimonas xiamenensis)
chain: ADKPACRAVFDAGSSGTRLFLYVQQEGGWQPWPGAKLGALADPVRQHQGPKAMAALAADLANSLEALRQDGPTNSEGQPRWQGFDWQQACRLQSVSVLATAGMRLAEQQDPVASVALWQEVQQALAGLLGPAVAIDARTLTGFEEGFYAWLAARARLGRSDMGIVEMGGASSQVAFPCPACDRADDAVQQVRLEGQTLDFYSYSFLALGQDEAPKVLGVPHACRYGAGVKDPNWQLGQCQAQLPLTLGRALKDPYNFQGQGQGGYRQVPTEKAGVKDWLLTGAFQYNTPDQLDSCCLNQGQCYQPSTACFRVAYLPLYLDSLGVDPHSPDLDVSWTLGAVLCRNEQCLAPSKPPCRWRKAGCLAPSVGDGRPEGRPGQQPGGVQHRQH
  Relative activity (%) on ATP: 60%

B8: CRC22110v2: single-site variant L206A of CRC22110 (SEQ ID NO: 9) (protein, listed as Gallaecimonas xiamenensis)
chain: ADKPACRAVFDAGSSGTRLFLYVQQEGGWQPWPGAKLGALADPVRQHQGPKAMAALAADLANSLEALRQDGPTNSEGQPRWQGFDWQQACRLQSVSVLATAGMRLAEQQDPVASVALWQEVQQALAGLLGPAVAIDARTLTGFEEGFYAWLAARARLGRSDMGIVEMGGASSQVAFPCPACDRADDAVQQVRLEGQTLDFYSYSFAGLGQDEAPKVLGVPHACRYGAGVKDPNWQLGQCQAQLPLTLGRALKDPYNFQGQGQGGYRQVPTEKAGVKDWLLTGAFQYNTPDQLDSCCLNQGQCYQPSTACFRVAYLPLYLDSLGVDPHSPDLDVSWTLGAVLCRNEQCLAPSKPPCRWRKAGCLAPSVGDGRPEGRPGQQPGGVQHRQH
  Relative activity (%) on ATP: 60%

B9: CRC22110v9: single-site variant F205L of CRC22110 (SEQ ID NO: 9) (protein, listed as Gallaecimonas xiamenensis)
chain: ADKPACRAVFDAGSSGTRLFLYVQQEGGWQPWPGAKLGALADPVRQHQGPKAMAALAADLANSLEALRQDGPTNSEGQPRWQGFDWQQACRLQSVSVLATAGMRLAEQQDPVASVALWQEVQQALAGLLGPAVAIDARTLTGFEEGFYAWLAARARLGRSDMGIVEMGGASSQVAFPCPACDRADDAVQQVRLEGQTLDFYSYSLLGLGQDEAPKVLGVPHACRYGAGVKDPNWQLGQCQAQLPLTLGRALKDPYNFQGQGQGGYRQVPTEKAGVKDWLLTGAFQYNTPDQLDSCCLNQGQCYQPSTACFRVAYLPLYLDSLGVDPHSPDLDVSWTLGAVLCRNEQCLAPSKPPCRWRKAGCLAPSVGDGRPEGRPGQQPGGVQHRQH
  Relative activity (%) on ATP: 68%
